Test results from the domain aggregation screens of Martell et al. (2025).

Experiment: soluble fraction after stress (log2 fold change); higher = more stays soluble; pooled small domains, quantitative proteomics
Conditions: stress: pH 4
How it was run: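 Pooled custom libraries of small protein domains were stressed at pH 4 and then measured by high-throughput quantitative proteomics. The fold change in the amount of each domain that stays soluble after the acid stress serves as a measure of aggregation propensity. Fold changes are given on a log2 scale, and higher values mean more of the domain stayed soluble.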

Q: For “HMRIEDTMDYINKIKEKLKNNGGVITSKEFTRSNIPTIYLTRMVETGELIRIDRGIYINSSG”, which “soluble fraction (log2)” value is on record?
A: Its value is -0.462.

Q: With “HMRIEYYDDEELDRYIGTPASGYREAAVEEFREILLTLDADDVPGWVRSLQLRGIEFPESLRPELYL” as the sequence, how does the “soluble fraction (log2)” value read?
A: The value was -1.5.

Q: For “HMRIFDDNMIFPTEAEISAALKRLVMDLPKVGFLQGHGERAVDNVGERAYSMFTHANNFRYALINQGFVT”, which “soluble fraction (log2)” value is on record?
A: The value was -0.0562.

Q: Which “soluble fraction (log2)” value does the source give for “HMRIHKQLGDRIRNLRLSSGMNQEELAFKSGISAAHLGQIERGLKSPTISTIQKIAKALNVTLPILF” here?
A: The value was 0.311.

Q: Which “soluble fraction (log2)” value does the source give for “HMRININNASARQIADALPGVGLKTARDIKDFQTTLSGERYTRLDQLHSIKRVDWDEIFKADLVRV” here?
A: Its value is 0.158.

Q: With “HMRISMRDQVYEIIKNRILSREYSLGEPINIVHLSKELGISNTPIREALSQLETERLITINSNQKYHVT” as the sequence, how does the “soluble fraction (log2)” value read?
A: The value was -0.0135.

Q: Which “soluble fraction (log2)” value does the source give for “HMRKDEFLQTLRRALNGNVPPRVVEENVRYYDGYISDEVRKGRSEEEVIEEIGDPRLIARTIEDTT” here?
A: Its value is -0.187.

Q: With “HMRKDRKVLMERGRHIFNDLLEKEGIVATNQLMTKLLASHHLRNRDELYLMLANDDISLSSKEIKDLS” as the sequence, how does the “soluble fraction (log2)” value read?
A: The value was 0.22.

Q: With “HMRKEDYLPIGSVINMDDRKFRVDSVDFDKDKVSLQDMALADARMPIFWEEPLTVVRELYEQQDE” as the sequence, how does the “soluble fraction (log2)” value read?
A: The value was -0.899.

Q: For “HMRKEPSYASDIITRLKEADLIVVEGTLYPLLTRLKKDGLLSYEWRESTQGPPRKYYALTLDGET”, which “soluble fraction (log2)” value is on record?
A: Its value is -0.895.

Q: For “HMRKIGDVLRLHAGGLSKRRIAVSLNIGRTAVGDYISRARRAGLGWPLPEDLSEEALERLLFPPP”, which “soluble fraction (log2)” value is on record?
A: The value was 0.151.

Q: With “HMRKIVEGVLTKKEGKWYLLTDIETYKISDASAEYHKAELNDRASALIPAQNPKVPFASLEKVFN” as the sequence, how does the “soluble fraction (log2)” value read?
A: Its value is 0.186.

Q: For “HMRKLHFVMSEIYEDHPWIGSKLQDVFLPKDIRVVLVERDSKQFMPNGQTLFELGDRLTLSALHYDPA”, which “soluble fraction (log2)” value is on record?
A: The value was -2.22.

Q: With “HMRKLTDRQRQILDLIKTIIAETGAPPTRAEISTALGFKSANAAQEHLQALAQKGMIDLVSGASRGIRLRG” as the sequence, how does the “soluble fraction (log2)” value read?
A: Its value is -0.194.

Q: For “HMRKMELTEAAEKLIEEPDVVSAYRNMQQIFQQWREIGPVPREQRDEVWSHFKDLMTQVNRRHQAHFEN”, which “soluble fraction (log2)” value is on record?
A: The value was -0.258.

Q: For “HMRKPLDQSWVPDDDAMKILTNSGIEKEFIKNEIPEFILYWSDKGEISDSWNTKFISQIRRQWAKNQ”, which “soluble fraction (log2)” value is on record?
A: The value was -0.465.

Q: Which “soluble fraction (log2)” value does the source give for “HMRKSAVSSTLTSIEGIGATRAKALLKHFKTVAAVSEADLKELEDAPGMTRPSALRVYEYFHGK” here?
A: Its value is 0.0795.

Q: Which “soluble fraction (log2)” value does the source give for “HMRKSLGEIVFDRMERAIKSGAYSPDERLPTELDLAAEFEVSRPVIRDALKRLRERGLIYSRQGAGSFVRA” here?
A: Its value is -0.25.

Q: For “HMRKTIQDFLSSNKVDIAKLLTLALEKTKEDLYKNLSYNLTNKELEKLKLLIKKREQGIPFAYLS”, which “soluble fraction (log2)” value is on record?
A: The value was 0.0954.

Q: For “HMRLADHVVEKLLALVQERGLQPGQKLPAERQLAEVLGVSRTSVREAIQKLVSQGVLSARRGDGTYVQS”, which “soluble fraction (log2)” value is on record?
A: Its value is 0.0683.

Q: Which “soluble fraction (log2)” value does the source give for “HMRLANGIGTVYKLSGNRRNPYIVRKTTGWEIDEESGKAKQKYITIGYAPTRAKGLEMLMDYNKNP” here?
A: The value was 0.22.

Q: For “HMRLDHIFSVVERLKGVSLGAGDRLEVQKYEDLLTVYKSKNALSSEEAQTLNDILASLLKMMAKYD”, which “soluble fraction (log2)” value is on record?
A: Its value is -0.54.

Q: For “HMRLDSELVSARLHRFMGTNRKPDGEIVEKIAAILEGHPIETLDAFLQSLNGRKIKSYGFFPTVLRREIAN”, which “soluble fraction (log2)” value is on record?
A: Its value is -0.114.

Q: For “HMRLEEVSVPQRLLAAIAEEREVQIGIVDGRGGTRVLRVEPLALEGGRLRARDVESGEEFTVLIHRVLL”, which “soluble fraction (log2)” value is on record?
A: The value was -0.809.

Q: With “HMRLLAESIARGLDPEGSGGLWAKEAGAEALKLMETLAAEAPHGGSFTAAAYRDLFESLVHQGEVREA” as the sequence, how does the “soluble fraction (log2)” value read?
A: The value was -0.335.

Q: For “HMRLLGEPLAGRLKKDVPVVTGRSTESKAIAQFFELRWSHLPDPEARTISVASGRIDFMDVGATRFSLR”, which “soluble fraction (log2)” value is on record?
A: The value was 0.124.

Q: For “HMRLSDSEFESIENAIKEKLENSALTADVLVKELSFDEDKIWKVIRWLEDAEKISEDEAGTLLWKPR”, which “soluble fraction (log2)” value is on record?
A: Its value is -0.76.

Q: For “HMRLSESLLDDIPGIGAARKRALLQSFGSVRKLRHADAEEIAAKVPGIGLNFAEKIVEALRKK”, which “soluble fraction (log2)” value is on record?
A: The value was 0.187.

Q: For “HMRLTTTPKTARGLTTMNRIIRAAEVEFGRKGYHYTGITDIAQRAKVASGTIYLYFTDKYSLYVHLLT”, which “soluble fraction (log2)” value is on record?
A: The value was 0.17.

Q: For “HMRLYTQDVAVLNRDVIQGEVITSDMVTTVNVHKRTVPTGALNLSEIPGNVAKFNIPASIPITASMVTK”, which “soluble fraction (log2)” value is on record?
A: Its value is -0.171.

Q: With “HMRMLLKELLIQYEVKNDKSHVEVAKEVGVSLSTYYRWLNGESLHLKKRTIDRLSEVLHYDINQVVEES” as the sequence, how does the “soluble fraction (log2)” value read?
A: The value was 0.0267.

Q: For “HMRMLSEGAQRMLRGLAVLEEASADRLLELHQGDYPGFVRSLFALESAGLFQRNGSGTWIRR”, which “soluble fraction (log2)” value is on record?
A: The value was -0.996.

Q: For “HMRMNASERQNQIVDLLSQNGVMKIMDIADHFNVSRETIRRDLIILEDDNRIKKWFGGVISAN”, which “soluble fraction (log2)” value is on record?
A: The value was -0.219.

Q: With “HMRMQRYYLTDMSEKGREALPGVLDEMGYAGRYTMSDNSIAINSNMIVLSKAIKRAEDIAHNE” as the sequence, how does the “soluble fraction (log2)” value read?
A: The value was -0.148.

Q: For “HMRMRPNERQKRIIELLSFRRHETIGNFANEFGVSRDTIKRDIITLQEEYPIISERGYEGGISLPDGYYI”, which “soluble fraction (log2)” value is on record?
A: The value was -0.0594.

Q: Which “soluble fraction (log2)” value does the source give for “HMRMSLDEAKAVVLPIGEYKGRNMGEVLAIKPELIDFYASQKFNSSKYPYLKEAAQVILENQ” here?
A: The value was 0.0219.

Q: With “HMRMSPRERKIYQFIENHPGTKSGEMAEKLGIPLPTIKRLLSDMVASKLLQKHGTGAGTNYSIEE” as the sequence, how does the “soluble fraction (log2)” value read?
A: Its value is ≥ 0.43.

Q: With “HMRMSQLSRLISILTLLKSKRLLTATELAEKYDVSIRTVYRDIRKLEEAGIPVYTIEGRGYSLMDNYT” as the sequence, how does the “soluble fraction (log2)” value read?
A: The value was -0.299.
